Results taken from the supplement of paper PMC9170038.

test system: K4 kissing-loop RNA reporter; assay: apparent KD of K4 kissing-loop reporter; higher = weaker reporter binding; details: Eterna round: R107; input ligand: theophylline 20 uM
Protocol: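 RNA-MaP round R107: designed RNA switches with theophylline, tryptophan, arginine or FMN aptamers are transcribed on-chip within common flanks. They are titrated with a labelled K4 kissing-loop RNA reporter in RNA-MaP buffer (100 mM Tris pH 7.5, 80 mM KCl, 4 mM MgCl2), without ligand or with the indicated ligand. Median apparent KD per design.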
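Further: bound reporter read as fluorescence of individual clusters on recovered sequencing chips by microscopy, with normalized cluster intensities fitted with a binding model.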

Sequence | apparent KD of K4 kissing-loop reporter
UGACUGGACUGAAGGAGCGGGAAACUCCUAGUGAUGUUAGGAAUACGAGACAAAGUCUCGACCCAGGUAGGUCGCAGUCUAGUCU [ArgBS 17 #SwitchBubble #StaticStem] | 116 nM
AGAGUUGACGAAAAGUCAACUCUACGAGAAGGAGCGCACGAAAGUGCAGGUAGGUCGCUCAGUCCAGUGAUGUUGGAACAUAAAA [#OpenEnded 8] | 84.1 nM
ACCUACCAUUAGUGAUGUUAAUGGACGGAAGGAGCGCGGAUAUCCGCAGGUAGGUCGCCGAAGGCUAGACAUUGUCUAGCCAUUA [AK1.2 SS Arginine A] | 166 nM
UGAUACCAGACUGAUACCAGCCACAGAGUCAAAGACUCUGAUAAAGGAACCAGUGAUGUUGGCCCUUGGCAGCAGUCUGGUAUCU [TheoBX 24 #SwitchBubble #StaticStem] | 107 nM
CUCGUGGGUUUGAGAGGGCUUGUGGGAAGUGAGGAUAUUUAGGGAGAAAGAAGGCACUAUAGAAUAUAGUGAUGUUAUAUAAGGG [SSFMNA.N] | 273 nM
AUUAAUUUCAGAGGAUAUCGUUAUUUUUUAUAGUAUAUUCAAUUAUGCAGUGAUGUUGCUAUUAAUCGAGAAGGCUGAUUUAUAA [JR_ExcFMNB_Sub002] | 250 nM
AGACUACCACACUGUCAAUAGACAGUGUACUAGGAUAUGCUGAUAAGCAGAAGGAGUGAUGUUCCUUGGUAGUCAAUAAAAUAAU [FmnAX 13 U28+U67] | 268 nM
GUUGCAGCCCGUGAUACCAGCAUCGGUCGCCGGGUCCAGUGAUGUUGGGCUUGCGUUCUAUGCCCUUGGCAGCGCGGCCUGACAG [Qulaanar] | 393 nM
UGAUAAAGCAGUGAUGUUGCAAGAAAUGAUACCAGUUAAGAAGAGAACCCUUGGCAGCAUAAAGUGCGCUCUAAUGAGUGUGCUU [whbob_SS_Theo_A_w50] | 179 nM
CCAUCGCUAUUCGAUACCAGUCAUAAAAUCUUUGGUUAAAUAAAGGAGUGAUGUUCCAAAGACCCUUGGCAGCGAAUAGUGAUGG [Theophylline B K4 6] | 887 nM
GUGCAGUGAUGUUGCACGAGGAAAGACGAUACCAGCCGCAAAUGUGGCCCUUGGCAGCGUGGGCUAGCACAAAAUAUGCUAGUCU [Ricegeusat] | 98.9 nM

same assay, conditions: Eterna round: R107; input ligand: tryptophan 2.4 mM

Sequence | apparent KD of K4 kissing-loop reporter
AGACUACUGAUAGGAUAUAACAUACUACUCGUAUACCGAAAGGUAUACGAGACCCUUCUAGUGAUGUUAGAAGGGUCGGUAGUCA [Omei KL FMN B Exc B v8] | 74.7 nM
GAAUGAAAUAUCUGGCCCUAUCAGAAUUGGAAGGAUAUGACGGUCAUCAGAAGGUCCAACUCGUAGUGAUGUUGCGGGUUUUAAA [theeternabot_exclusion_KL_FMN_A_21] | 36.2 nM
UGGAUAUAGUGAUGUUAUAUAGAGAUGGAUACCAGUUAAGAGAAUAGCCCUUGGCAGCCGAAAGAAGUAUCAUUAGAGAAGAAUG [ExTheophyl.Ad] | 195 nM
AGGCGCUUAAGUCAGUGAUGUUGAUUAUAUCGAGGACCGGUACGGCCGCCACUCGGCUUUCAUCCGCCAUCGUAGUCCUAAAACC [theeternabot_sameState_KL_Trp_A_25] | 549 nM
UGAACUUUUGCUAGGAACCGUCUAGCUCUUUAGGAUAUCUGGAAACAGAGAAGGAAAGACCUACAGAGUGAUGUUCUGCGUUCAU | 263 nM
AGAGUUAAUUAGUCUUUUUUUACAUUAAGUCAGGAUAUCGUAUAUUCGAGAAGGGACACAUGCUAGUGAUGUUAGCUAUUUCUCA [JR_Nu_ExcFMNA_Sub019] | 44.4 nM
AGAUCUAAGCUGAGUUAGUCACCAUAAAGCAAGGAUAUUCCACGAAGAAGAAGGUGCAUCAUCCAUAGUGAUGUUAUGGCACGGG [theeternabot_sameState_KL_FMN_A_7] | 574 nM
GCCGUAGAUGGAAGGAGCGUGUCAAAGUGAUGUUUUGAUUAACUCCCUACGGGAUAGAUGACACAGGUAGGUCGCCAUCUACGGC | 65.3 nM
GCCGUAGAUUGAAGGAGCGGCACCCACGGCUCUAACACCUAAGUGAUGUUUAGGUAGUGGUGCCAGGUAGGUCGCAAUCUACGGC | 131 nM
GUGUGACUAGUGAUGUUGGUUGCGUGGGAAGGAGCGCAGUAAAAUGCAGGUAGGUCGCCCGUAUCUCUGAUAAAAGAUUAAUUCA [KL-SSArg-A10] | 153 nM
GCACUGAAGUGAUGUUUUUGUGCACGUUGAAAGGAUAUCUGCUUGUAGAGAAGGUUCUGUUUGUGCGGAGCGGGCGUUACCGGCA [theeternabot_exclusion_KL_FMN_A_32] | 308 nM
UUCGAUCAGUGAUGUUGAUCAUCAGUCGAAGGAGCGCUAGAGAUAGCAGGUAGGUCGCGACUGCAAGGUGUGAGAACACCUCGAA [Arg A SS t9a] | 255 nM
CAAAUAUGCGGUAGGUUCAAGCGCUGGGAAGGAGCGCAGAUGACUGCAGGUAGGUCGCCCAGUGAUGUUGGGCUUUCCACCUAUU [Edbeaan] | 121 nM
AAGGUUGUGCAUGGGAGUGAUGUUCCCACGCAGGAUAUCGCUCACGCGAGAAGGGCGAGCACAACCGCUCAAGAAACUUGAGCAA [Omei KL FMN A SS C v2] | 126 nM
CGUAGUUGGGCGGCCGCCACUUGAACAGCUUUGCCAAAGGCAGAGCUCUAGAGUGAUGUUCUGGCAAGGACCGGGUCCAACUACA [#02 K4 Tryptophan B Same State] | 423 nM
AGAUGACACCGAGGAUAUCCUAAUAUGGGUGAUGUUAGCGAUGUUGAAGGUGUAGUGAUGUUAUGCGGAGAAGGCGGUGUUGUUU [BDazzled - #21 - Exc. FMN B] | 132 nM
CGCAAGCAGCCAGUGAUGUUGGCCGCCUUGCGAGGACCGGUACGGCCGCCACUCGAAGGCGGCUAGUAGUAGUCUGUCUAACGGA [KL-XTryp-A16] | 184 nM
AAUAAGCGCGGAAGGAGCGCCGCCAGUGAUGUUGGGAGUUAGAUACCAGUGAUGUUGGGCCGGCAGGUAGGUCGCCGCAAAGCUU [Exclusion Arginine B Gf 14] | 138 nM
AUUCUGUUUUUGAUGUUUUUUGUAUAAUGGCAGGAUAUCGUAGAAGCGAGAAGGGCUUUUAUGCGUUAUGAGUGAUGUUUGUAGG [ttytewvmullin] | 227 nM
CCCGGUCCACGAAGGAGCGCCGUGCAGUGAUGUUGCAGUUAGAUCCAGUGAUGUUUGGGCCGGCAGGUAGGUCGCGUGGCCCGGG [Excusion Arginine B GF 24] | 188 nM
GGUAGCAUGGCGGCCGCCACUGUUCGUGUUGCUAGCAGAUUCCAGUGAUGUUGGAAGCCUAGGUACAGGACCGGGCCAUGCUACC | 103 nM
CCGCUGCCCUCAGGAUAUUAAGUAUUAGUGAUGUUAGUAAACCGAUGGCGAAAGCCAUCGGUAUGUUGAGAAGGGAGGGUAGCGG [whbob_SS_FMNB__2th199] | 550 nM

Sequence | apparent KD of K4 kissing-loop reporter
AGUGAUGUGGGAAGGAGCGGUAGAUGAGUUCAGUGAUGUUGAAGUGAUGCUGUAGUGAUGUGCCAGGUAGGUCGCCUAGAUGUUA [KL-XARG B24] | 207 nM
CUUGUACAAGUGAUGUUUGUUAUAUCCGAAGGAGCGUCGUAAUAGACAGGUAGGUCGCGGAGUAAGAUAGUUUUUUUAAUAUCAU [JR_Nu_SSArginiA_Sub029] | 288 nM
UAGUGUCGCGCAGGAUAUACUGAUUGGAGUGAUGUUCCAAACAUGAACGUGAGACUUUUACAAGAAGUAGAAGGGCGUGAGACAU [Exclusion FMN B GF 21] | 404 nM
CGGAUGUAGUGAUGUUAUAUAAGAUGUAGACGAGGACCGGUACGGCCGCCACUCGAAACGGCUACUAGCGCGUUGCGAGGUGUGC [ExTryptoA.CI] | 514 nM
GUUACGCAUGGAAGGAGCGCAGGCUCAACAAAUAGCUCAGUGAUGUUGAGCAUAUUAAAACUGCAGGUAGGUCGCCAUGUGUAAC [Ex Arginine B K4 23] | 588 nM
AAAUGCAGCAAACGAGUGAUGUUCGACGAUACCAGCCUCGAUAGAGGCCCUUGGCAGCGUACAUCAAAGCCAAGGGCUGCUAAAA [#SwitchBubble 3] | 454 nM
UUAUAUCUCUGACUUUCACUUUGCGUAUCUGAGGAUAUCUGAAUUCAGAGAAGGCAGUGAUGUUGCUUUGCUGUGUGUCUGAGAA [AK2 Exc FMN A] | 372 nM
UCCUCGAAUCGACCUCGAAAGAGGAUGGAUACCAGUCUUGAUAAAGACCCUUGGCAGCCAGUGAUGUUGGAACGAGGUAAAUAAA [#SwitchBubble 19 #K4Late] | 359 nM
GUCUAGCUAGCAGGAUAUAGCUGGUAGUGAUGUUACCACUAGAACUCUGCGGAAACGCAGAGUAUCCUAGAAGGGCUAGCUAGAC | 66.8 nM
UUUGGAAGCGGUGUUGAUUAGGGAGCGGAAGGAGCGCCGAUUAUGGCAGGUAGGUCGCCGGAAUGUAGUGAUGUUGCAUAGAGGU [ExArgA.X] | 128 nM
GGAGGGAUCUCGGCCGCCACUCAUAAGAAAUGAACCUCAGAAAUAUAGUGAUGUUAUAUAAAGAAGAGGACCGGGAGAAAGGAGG [ExTryptoB.B] | 168 nM
UGACUGGACUGAAGGAGCGGGAAACUCCUAGUGAUGUUAGGAAUACGAGACAAAGUCUCGACCCAGGUAGGUCGCAGUCUAGUCU [ArgBS 17 #SwitchBubble #StaticStem] | 119 nM
AGAGUUGACGAAAAGUCAACUCUACGAGAAGGAGCGCACGAAAGUGCAGGUAGGUCGCUCAGUCCAGUGAUGUUGGAACAUAAAA [#OpenEnded 8] | 59.2 nM
ACCUACCAUUAGUGAUGUUAAUGGACGGAAGGAGCGCGGAUAUCCGCAGGUAGGUCGCCGAAGGCUAGACAUUGUCUAGCCAUUA [AK1.2 SS Arginine A] | 182 nM
UGAUACCAGACUGAUACCAGCCACAGAGUCAAAGACUCUGAUAAAGGAACCAGUGAUGUUGGCCCUUGGCAGCAGUCUGGUAUCU [TheoBX 24 #SwitchBubble #StaticStem] | 156 nM
CUCGUGGGUUUGAGAGGGCUUGUGGGAAGUGAGGAUAUUUAGGGAGAAAGAAGGCACUAUAGAAUAUAGUGAUGUUAUAUAAGGG [SSFMNA.N] | 212 nM
AUUAAUUUCAGAGGAUAUCGUUAUUUUUUAUAGUAUAUUCAAUUAUGCAGUGAUGUUGCUAUUAAUCGAGAAGGCUGAUUUAUAA [JR_ExcFMNB_Sub002] | 112 nM
AGACUACCACACUGUCAAUAGACAGUGUACUAGGAUAUGCUGAUAAGCAGAAGGAGUGAUGUUCCUUGGUAGUCAAUAAAAUAAU [FmnAX 13 U28+U67] | 238 nM
GUUGCAGCCCGUGAUACCAGCAUCGGUCGCCGGGUCCAGUGAUGUUGGGCUUGCGUUCUAUGCCCUUGGCAGCGCGGCCUGACAG [Qulaanar] | 415 nM
UGAUAAAGCAGUGAUGUUGCAAGAAAUGAUACCAGUUAAGAAGAGAACCCUUGGCAGCAUAAAGUGCGCUCUAAUGAGUGUGCUU [whbob_SS_Theo_A_w50] | 87.6 nM
CCAUCGCUAUUCGAUACCAGUCAUAAAAUCUUUGGUUAAAUAAAGGAGUGAUGUUCCAAAGACCCUUGGCAGCGAAUAGUGAUGG [Theophylline B K4 6] | 780 nM
GUGCAGUGAUGUUGCACGAGGAAAGACGAUACCAGCCGCAAAUGUGGCCCUUGGCAGCGUGGGCUAGCACAAAAUAUGCUAGUCU [Ricegeusat] | 108 nM
